In patent US9453050B2, “Compositions for treating glioma” (GLIA SP Z.O.O., priority 2011, dated 2016):

Columns and labels:
[1] = system: osteopontin (spp1) mRNA in C6 glioma cells; test: qPCR of osteopontin silencing in stable C6 glioma clones; type: cell-based, rat; settings: stable C6 glioma cell lines; FIGS. 7A and C
Experimental: Forward and reverse oligonucleotides were incubated in 0.1 M NaCl for 3 min at 94° C., followed by slow cooling to 37° C. for 1 h. The annealed DNA was ligated with pSilencer 2.0-U6 (Ambion, Germany) at BamHI and HindIII sites. After transformation into E. coli, plasmids were amplified, isolated and the sequences were verified by sequencing. The pSilencer-spp1, pSilencer-mfg8 pSilencer-GM-CSF and pSilencer 2.0-U6 Negative Control (Ambion) vectors were purified with Qiagen Plasmid Maxi Kit and 1.6 μg of each DNA was transfected into cells using 2 μl Lipofectamine-2000 (Invitrogen, UK). One day after transfection, hygromycin B (200 μg/ml) was added. Resistant clones were picked after 2 weeks and analysed for expression of appropriate mRNA by qRT-PCR.
RNA was isolated with RNeasy Mini Kit (Qiagen). First-strand cDNA was synthesized from 2 μg of total RNA (DNase-treated) in a 20 μl reverse transcriptase reaction mixture. […] The expression of Osteopontin, and lactadherin in C6 rat glioma cells and primary astrocytes was evaluated using qPCR. The expression of GM-CSF in GL261 glioma cells and primary astrocytes was evaluated using qPCR. […]
Reaction volume (20 μl) consisted of cDNA equivalent to 50 ng RNA, 1×SYBR Green PCR master mix (Applied Biosystems) and 0.9 μM of each primer. […] Relative quantification of gene expression was determined using the comparative CT method. […]

[2] = system: microglia cells; test: qPCR of GCM-induced genes in microglia exposed to GCM of shRNA-expressing C6 glioma cells; type: cell-based, rat; settings: FIG. 7D
Experimental: Total RNA (2 μg) isolated from microglia cultures untreated or treated for 6 h with LPS or G-CM was used as a template to generate cDNA. As endogenous control 18S (Hs99999901_s1) rRNA was applied. Gene expression quantification was performed using the Applied Biosystem TaqMan® The real time amplifications were performed in duplicates in a 20 μl reaction volume containing 2×SYBR PCR MasterMix and a set of primers designed using PRIMER EXPRESS software for the following genes: iNOS, COX-2, II1beta, TNF alpha, MMP-2, MMP-9, MMP-14, Arg1, Id1 and c-Myc. The amount of target mRNA was first normalized to the 18S RNA expression level and then to a control. Data were analysed by the Relative Quantification (^ΔΔCt) method using 7500 System SDS software (Applied Biosystems). The expression of each product was normalized to 18S rRNA and is shown as the ratio of the target gene to 18S gene expression, calculated by 2^−ΔΔCt.
To investigate the role of identified proteins in GCM-induced activation of microglia cells, stable C6 glioma cell lines expressing shRNAs specific to osteopontin (shSPP1), or a control, negative shRNA (shNeg) were generated. Silencing efficiency was approximately 98.5% (FIGS. 7A and C). Silencing of […] inhibited GCM-induced expression c-Myc and smad7 in microglia cells (FIG. 7B). […]

[3] = system: C6 glioma cells; test: Matrigel matrix invasion of C6 glioma cells in presence of microglia; type: cell-based, rat; settings: laser scanning cytometry; FIG. 7E
Experimental: The invasion assay was performed as described (Wesolowska et al. 2008, Kwiatkowska et al. 2011). Briefly, 24-well tissue culture inserts (12 μm pore size Transwell, Corning, N.Y., USA) were coated with the Growth Factor Reduced Matrigel™ Matrix (BD Biosciences, San Diego. Calif., USA). 100 μl of the Matrigel™ Matrix (1 mg/ml) diluted in distilled water, was dried under sterile conditions (37° C.) for 5-6 hours and reconstituted for 30 minutes in 200 μl of culture medium. C6 glioma cells (1.5×10^4/insert) were seeded on Matrigel-coated membrane in the serum-reduced medium (2% FBS) and exposed to microglia or left untreated. After 48 h cells were fixed and cell nuclei stained with DAPI. The membranes from Transwell® inserts were cut out and the total number of cells that migrated through the Matrigel was determined using Laser Scanning Cytometry (LSC, CompuCyte). All experiments were performed in triplicate. The data from three independent experiments were pooled and expressed as the average number of cells±S.D.
To investigate the role of identified proteins in GCM-induced activation of microglia cells, stable C6 glioma cell lines expressing shRNAs specific to osteopontin (shSPP1), or a control, negative shRNA (shNeg) were generated. Silencing efficiency was approximately 98.5% (FIGS. 7A and C). […]

[4] = system: C6 glioma; test: C6 glioma implantation into striatum of Wistar rats; type: in vivo, rat; settings: 15 days after implantation, FIG. 19C
Experimental: RNA was isolated from rat C6 glioma clones stably expressing shRNA against osteopontin cells and cDNA was synthesized using reverse-transcriptase and random hexamer primers. Knock down efficiency of osteopontin was confirmed by Real Time PCR (FIG. 19A). C6 glioma cells expressing control shRNA (shNeg) or glioma cells depleted of osteopontin (shSPP1) (5×10^4 cells/2.5 μl of DMEM) were implanted into the right striatum of 8-10 weeks old Wistar rats. 15 days after glioma implantation, the animals were sacrificed and intracardially perfused with 4% paraformaldehyde. The brains were removed, frozen with dry CO^2 and serial 20- or 12-μm-thick coronal sections were collected using a cryostat. To quantify the tumor size, 20 μm-thick sections were stained with toluidine blue, images were acquired using a Leica DM4000B microscope. Tumor areas were measured using ImageJ software in an every fourth brain slice and tumor volumes were calculated according to the Cavalieri principle (Gabrusiewicz et al, 2011). […] Moreover, gliomas from implanted C6-Neg were of similar sizes as WT C6 cells (n=5, 28.33±14.53 mm^3). […] Results are expressed as the means±s.d. from 2 independent experiments (U-Mann-Whitney test).

[5] = system: EGFP-GL261 glioma cells; test: BrdU incorporation of glioma cells expressing shGM-CSF; type: cell-based, mouse; settings: FIG. 10C
[6] = system: intracranial GL261 gliomas; test: Survival of mice with intracranial gliomas (Kaplan-Meier); type: in vivo, mouse
Experimental: Mice were randomly assigned to receive intracranial implantation of shNeg or shRNA glioma cells and observed until becoming moribund. EGFP-GL261 glioma cells, shGM-CSF glioma cells or shNeg glioma cells were inoculated in a right striatum using a syringe with a 26-gauge needle in a stereotactic apparatus according to the coordinates (+1.5 mm AP, −1.5 mL). Mice were resuscitated using i.p. administration of atipamazole and treated with the Tolfedine 4% (4 mg/kg s.c.) analgesic. Kaplan-Meier analysis of mice implanted with shGM-CSF and shNeg glioma cells (n=10 mice per group) was performed.
Two mice having shGM-CSF-gliomas were alive 63 days post implantation.

[7] = system: EGFP-GL261 glioma cells in murine brain slices; test: Tumor invasion in organotypical brain slice cultures; type: cell-based, mouse; settings: 5d after injection; FIGS. 12A and B
Experimental: The organotypical brain slice cultures were obtained from 16-day-old male C57/BL6 mice (animal breeding facility, Schonwalde, Germany). The brain slices cut into 250 μm sections were transferred to a Transwell insert in a 6-well plate (Becton Dickinson, Lincoln Park, N.J., USA) and were incubated in 1 ml of DMEM (Gibco, Gaithersburg, Md., USA) supplemented with 10% FCS (Atlanta Biological, USA), 0.2 mM glutamine and antibiotics. After overnight equilibration, medium was exchanged for the cultivation medium containing 25% FCS, 50 mM sodium bicarbonate, 2% glutamine, 25% Hanks balanced salt solution, 1 μg/ml insulin (all from Gibco, Gaithersburg, Md., USA), 2.46 mg/ml glucose (Braun Melsungen AG, Germany), 0.8 μg/ml vitamin C (Sigma-Aldrich, Germany), 5 mM Tris and antibiotics. Slices were injected with 10,000 GFP-GL261 glioblastoma cells (in 0.5 μl) using a syringe mounted to a micromanipulator. […]
To investigate whether GM-CSF expression influences microglia dependent invasion or directly affects glioma invasion, an organotypic brain slice culture was used as a model. Control or GM-CSF-depleted EGFP-GL261 glioma cells were injected into murine brain slices and resulting tumor size was quantified 5d after injection by measuring the projected fluorescent area covered by the EGFP-glioma cells within the slice. […]

[8] = system: EGFP-GL261 glioma; test: Intracranial EGFP-GL261 glioma implantation in C57BL/6 mice; type: in vivo, mouse
Experimental: Adult C57BL/6 mice (12-16 wk) were anesthetized with an i.p. injection of ketamine (75 mg/kg) and medetomidine (1 mg/kg). EGFP-GL261 glioma cells, shGM-CSF glioma cells or shNeg glioma cells (8×10^4 cells in 1 μl of DMEM) were inoculated in a right striatum using 1-μl syringe with a 26-gauge needle in a stereotactic apparatus according to the coordinates (+1.5 mm AP, −1.5 mL). Mice were resuscitated using i.p. administration of atipamazole and […] Tolfedine 4% (4 mg/kg s.c.). At day 15th after glioma implantation, the animals were anesthetized, sacrificed and perfused with PBS or PBS and 4% paraformaldehyde in PBS. The brains were removed and minced or post-fixed for 24 h in the same fixative solution and placed in 30% sucrose in PBS at 4° C. Next, brains were frozen with dry CO2 and serial 20-μm-thick coronal sections were collected using a cryostat. Images were acquired using a Leica DM4000B microscope.
Tumor areas in coronal sections were measured using Image Pro-Plus software in an every second brain slice and tumor volumes were calculated according to the Cavalieri principle.
Staining with anti-Iba1 and anti-vWF antibodies was performed to detect microglia/macrophages and blood vessels, respectively. Sections were incubated with 0.5% H2O2 in PBS for 30 min at RT, permeabilized and blocked with 10% donkey serum with the addition of 0.3% Triton X-100 in PBS, and then incubated with the primary antibodies: anti-Iba-1 (rabbit, polyclonal, WAKO, 1:1000) or anti-vWF (rabbit, polyclonal, Abcam, 1:1000) for 24 h at 4° C. and with the secondary goat anti-rabbit biotinylated IgG for 2 hr at RT. The primary and secondary antibodies were diluted in PBS containing 0.1% Triton X-100 and 3% donkey serum. The sections were exposed to extravidin-peroxidase complex (1:200) for 1 h at RT and peroxidase activity was visualized with 0.02% 3.3′-diaminobenzidine (DAB) and 0.01% H2O2 in Tris buffer (pH 7.6). Sections were dehydrated and mounted with Histofluid (Sigma, Germany). […]

[9] = system: EGFP-GL261 glioma cells; test: MTT metabolism test of glioma cells expressing shGM-CSF; type: cell-based, mouse; settings: FIG. 10D
Text: To check if glioma-derived GM-CSF is responsible for recruitment of microglia/macrophages to gliomas and for tumor growth, EGFP-GL261 glioma cells stably depleted of GM-CSF were generated by over-expressing plasmids encoding specific shRNA. Silencing of GM-CSF expression at the mRNA level (FIG. 10A) and at the protein level (FIG. 10B) in two independently derived clones was confirmed by qPCR and ELISA. Two clones derived in parallel and expressing negative shRNA served as controls.

Molecule	Silencing efficiency [1]	GCM-induced expression arg-1 and smad7 in microglia cells [2]	microglia-dependent invasion of glioma cells through Matrigel [3]	tumor volume (mean value) [4]	reduction in tumor volumes ([4]; vs C6-Neg)	proliferation of glioma cells (BrdU incorporation) [5]	mice alive 63 days post implantation ([6]; 63 days post implantation)	survival of mice ([6]; n=10 mice per group, FIG. 16)	average tumor size smaller than controls (fluorescent area) [7]	number of microglia/macrophages (anti-Iba-1 staining) ([8]; vs control gliomas (shNeg), FIGS. 11A and B)	formation of tumor vessels (anti-vWF staining) ([8]; vs controls, FIG. 11C)	reduction of tumor size ([8]; vs shNeg glioma cells, day 15, FIG. 11D-E)	survival of glioma cells (MTT metabolism) [9]
shSPP1: shRNA specific to rat osteopontin, oligonucleotides SEQ ID NO: 21 and 22, stably expressed in C6 glioma cells (nucleic acid, the letters are possibly those of the target site) chain 1: GATCCAGCTAGTCCTAGACCCTAATTCAAGAGATTAGGGTCTAGGACTAGCTTGTTTTTTGGAAA chain 2: AGCTTTTCCAAAAAACAAGCTAGTCCTAGACCCTAATCTCTTGAATTAGGGTCTAGGACTAGCTG	approximately 98.5%	inhibited	strongly reduces	6.03 mm^3	88%								
shGM-CSF: shRNA to mouse GM-CSF, oligonucleotides SEQ ID NO: 23 and 24, stably expressed in EGFP-GL261 glioma cells (nucleic acid) chain 1: GATCCCGGAAACGGACTGTGAAACATTCAAGAGATGTTTCACAGTCCGTTTCCGGTTTTTTGGAAA chain 2: AGCTTTTCCAAAAAACCGGAAACGGACTGTGAAACATCTCTTGAATGTTTCACAGTCCGTTTCCGG						did not affect	Two	significant survival benefit	58%	reduced number	reduced formation	65%	did not affect
